To fix the notation:
B1: LIM and cysteine-rich domains 1 (natural protein, human, UniProt Q9NZU5-1 1-365, looked up)
chain: MAKVAKDLNPGVKKMSLGQLQSARGVACLGCKGTCSGFEPHSWRKICKSCKCSQEDHCLTSDLEDDRKIGRLLMDSKYSTLTARVKGGDGIRIYKRNRMIMTNPIATGKDPTFDTITYEWAPPGVTQKLGLQYMELIPKEKQPVTGTEGAFYRRRQLMHQLPIYDQDPSRCRGLLENELKLMEEFVKQYKSEALGVGEVALPGQGGLPKEEGKQQEKPEGAETTAATTNGSLSDPSKEVEYVCELCKGAAPPDSPVVYSDRAGYNKQWHPTCFVCAKCSEPLVDLIYFWKDGAPWCGRHYCESLRPRCSGCDEIIFAEDYQRVEDLAWHRKHFVCEGCEQLLSGRAYIVTKGQLLCPTCSKSKRS
notes: LIM and cysteine-rich domains 1, human; also called LMCD1; source: insect cell/baculovirus, purified, spotted (Invitrogen Protoarray v4.0)
B2: Nucleolar protein family A, member 2 (natural protein, human, UniProt Q9NX24 1-153, looked up)
chain: MTKIKADPDGPEAQAEACSGERTYQELLVNQNPIAQPLASRRLTRKLYKCIKKAVKQKQIRRGVKEVQKFVNKGEKGIMVLAGDTLPIEVYCHLPVMCEDRNLPYVYIPSKTDLGAAAGSKRPTCVIMVKPHEEYQEAYDECLEEVQSLPLPL
notes: Nucleolar protein family A, member 2, human; also called NOLA2; source: insect cell/baculovirus, purified, spotted (Invitrogen Protoarray v4.0)
B3: Tumor protein, translationally-controlled 1 (natural protein, human, UniProt P13693 1-172, looked up)
chain: MIIYRDLISHDEMFSDIYKIREIADGLCLEVEGKMVSRTEGNIDDSLIGGNASAEGPEGEGTESTVITGVDIVMNHHLQETSFTKEAYKKYIKDYMKSIKGKLEEQRPERVKPFMTGAAEQIKHILANFKNYQFFIGENMNPDGMVALLDYREDGVTPYMIFFKDGLEMEKC
notes: Tumor protein, translationally-controlled 1, human; also called TPT1; source: insect cell/baculovirus, purified, spotted (Invitrogen Protoarray v4.0)
B4: Growth arrest and DNA-damage-inducible, gamma (natural protein, human, UniProt O95257 1-159, looked up)
chain: MTLEEVRGQDTVPESTARMQGAGKALHELLLSAQRQGCLTAGVYESAKVLNVDPDNVTFCVLAAGEEDEGDIALQIHFTLIQAFCCENDIDIVRVGDVQRLAAIVGAGEEAGAPGDLHCILISNPNEDAWKDPALEKLSLFCEESRSVNDWVPSITLPE
notes: Growth arrest and DNA-damage-inducible, gamma, human; also called GADD45G; source: insect cell/baculovirus, purified, spotted (Invitrogen Protoarray v4.0)
B5: Adenine phosphoribosyltransferase (natural protein, human, UniProt P07741-1 1-180, looked up)
chain: MADSELQLVEQRIRSFPDFPTPGVVFRDISPVLKDPASFRAAIGLLARHLKATHGGRIDYIAGLDSRGFLFGPSLAQELGLGCVLIRKRGKLPGPTLWASYSLEYGKAELEIQKDALEPGQRVVVVDDLLATGGTMNAACELLGRLQAEVLECVSLVELTSLKGREKLAPVPFFSLLQYE
notes: Adenine phosphoribosyltransferase, human; also called APRT; source: insect cell/baculovirus, purified, spotted (Invitrogen Protoarray v4.0)
B6: Nucleosome assembly protein 1-like 5 (natural protein, human, UniProt Q96NT1 1-182, looked up)
chain: MADSENQGPAEPSQAAAAAEAAAEEVMAEGGAQGGDCDSAAGDPDSAAGQMAEEPQTPAENAPKPKNDFIESLPNSVKCRVLALKKLQKRCDKIEAKFDKEFQALEKKYNDIYKPLLAKIQELTGEMEGCAWTLEGEEEEEEEYEDDEEEGEDEEEEEAAAEAAAGAKHDDAHAEMPDDAKK
notes: Nucleosome assembly protein 1-like 5, human; also called NAP1L5; source: insect cell/baculovirus, purified, spotted (Invitrogen Protoarray v4.0)
B7: t-complex 10 (mouse)-like (natural protein, human, UniProt Q8TDR4 1-215, looked up)
chain: MLAGQLEARDPKEGTHPEDPCPGAGAVMEKTAVAAEVLTEDCNTGEMPPLQQQIIRLHQELGRQKSLWADVHGKLRSHIDALREQNMELREKLRALQLQRWKARKKSAASPHAGQESHTLALEPAFGKISPLSADEETIPKYAGHKNQSATLLGQRSSSNNSAPPKPMSLKIERISSWKTPPQENRDKNLSRRRQDRRATPTGRPTPCAERRGGV
notes: t-complex 10 (mouse)-like, human; also called TCP10L; source: insect cell/baculovirus, purified, spotted (Invitrogen Protoarray v4.0)
B8: PHD finger protein 7 (natural protein, human, UniProt Q9BWX1-1 1-381, looked up)
chain: MKTVKEKKECQRLRKSAKTRRVTQRKPSSGPVCWLCLREPGDPEKLGEFLQKDNISVHYFCLILSSKLPQRGQSNRGFHGFLPEDIKKEAARASRKICFVCKKKGAAINCQKDQCLRNFHLPCGQERGCLSQFFGEYKSFCDKHRPTQNIQHGHVGEESCILCCEDLSQQSVENIQSPCCSQAIYHRKCIQKYAHTSAKHFFKCPQCNNRKEFPQEMLRMGIHIPDRDAAWELEPGAFSDLYQRYQHCDAPICLYEQGRDSFEDEGRWCLILCATCGSHGTHRDCSSLRSNSKKWECEECSPAAATDYIPENSGDIPCCSSTFHPEEHFCRDNTLEENPGLSWTDWPEPSLLEKPESSRGRRSYSWRSKGVRITNSCKKSK
notes: PHD finger protein 7, human; also called PHF7; source: insect cell/baculovirus, purified, spotted (Invitrogen Protoarray v4.0)

The test has as its target T1, NEMO (NF-κB essential modulator), tag-free, biotinylated (human, UniProt Q9Y6K9 1-419, biotin (in vitro biotinylation kit, biotin:NEMO molar ratio 9:1)).
T1 construct: NEMO, NF-κB essential modulator, human, 48 kDa; also called biotinylated NEMO; biotin-NEMO; source: E. coli BL21(DE3), purified (glutathione sepharose), GST removed with thrombin, biotinylated in vitro
Briefly: peptide or protein array; Invitrogen Protoarray v4.0, about 8,400 human proteins spotted on nitrocellulose-coated glass slides; 10 µg biotinylated tag-free NEMO in 120 µl probing buffer (PBS, 0.5 mM DTT, 5 mM MgCl2, 5% glycerol, 0.05% Triton X-100), 4°C, 1.5 h; bound NEMO detected with labelled streptavidin; hits Z-score > 3, hits of the biotin-GST control array subtracted. The note with it: both partners purified.
For the molecule B1, the binding result is listed as “binds”.

For B2, the binding result is reported as “binds”.

Take B3: the binding result is “binds”.

Consider B4, for which the binding result is on record as “binds”.

For B5, the binding result is listed as “binds”.

For the molecule B6, the binding result is “binds”.

On to B7, for which the binding result is given as “binds”.

On to B8, for which the binding result is reported as “binds”.

The values are drawn from paper PMC2808332, “Expanding the Substantial Interactome of NEMO Using Protein Microarrays” (PLoS ONE, 2010).
